Reference: the Immune Epitope Database (IEDB)
Each block holds one sequence with its values, some of them ahead of it.

Columns and labels:
[1] = target: HLA-A*01:01; test: IEDB peptide-MHC binding, purified MHC/direct/fluorescence; filed as Kd, often an IC50 or EC50 that approximates it; ≥ and ≤ were set here for values at or beyond the usual limits of such assays
[2] = target: HLA-A*02:01; test: as above; conditions: source organism: Escherichia coli O157:H7
[3] = target: HLA-A*02:12; test: as above; conditions: source organism: Escherichia coli O157:H7 str. EC869
[4] = target: HLA-A*02:19; test: as above; conditions: source organism: Escherichia coli O157:H7 str. EC869
[5] = target: HLA-A*02:50; test: as above; conditions: source organism: Escherichia coli O157:H7 str. EC869
[6] = target: HLA-A*03:01; test: as above; conditions: source organism: Escherichia coli O157:H7
[7] = target: HLA-A*11:01; test: as above
[8] = target: HLA-A*23:01; test: as above; conditions: source organism: Escherichia coli O157:H7 str. EC869
[9] = target: HLA-A*24:03; test: as above; conditions: source organism: Escherichia coli O157:H7 str. EC869
[10] = target: HLA-A*26:01; test: as above; conditions: source organism: Escherichia coli O157:H7 str. EC869
[11] = target: HLA-A*26:02; test: as above; conditions: source organism: Escherichia coli O157:H7 str. EC869
[12] = target: HLA-A*26:03; test: as above
[13] = target: HLA-A*29:02; test: as above; conditions: source organism: Escherichia coli O157:H7 str. EC869
[14] = target: HLA-A*31:01; test: as above
[15] = target: HLA-B*07:02; test: as above
[16] = target: HLA-B*08:01; test: as above; conditions: source organism: Escherichia coli O157:H7 str. EC869
[17] = target: HLA-B*15:01; test: as above
[18] = target: HLA-B*18:01; test: as above; conditions: source organism: Escherichia coli O157:H7 str. EC869
[19] = target: HLA-B*27:05; test: as above
[20] = target: HLA-B*38:01; test: as above; conditions: source organism: Escherichia coli O157:H7 str. EC869
[21] = target: HLA-B*40:01; test: as above; conditions: source organism: Escherichia coli O157:H7
[22] = target: HLA-B*44:02; test: as above; conditions: source organism: Escherichia coli O157:H7 str. EC869
[23] = target: HLA-B*46:01; test: as above
[24] = target: HLA-B*48:01; test: as above
[25] = target: HLA-B*51:01; test: as above; conditions: source organism: Escherichia coli O157:H7 str. EC869
[26] = target: HLA-B*57:01; test: as above
[27] = target: HLA-B*58:01; test: as above
[28] = target: HLA-A*69:01; test: IEDB peptide-MHC binding, purified MHC/competitive/fluorescence; filed as Kd, often an IC50 or EC50 that approximates it; ≥ and ≤ were set here for values at or beyond the usual limits of such assays; conditions: source organism: Escherichia coli B171
[29] = target: HLA-B*15:02; test: IEDB peptide-MHC binding, purified MHC/direct/fluorescence; filed as Kd, often an IC50 or EC50 that approximates it; ≥ and ≤ were set here for values at or beyond the usual limits of such assays
[30] = target: HLA-A*30:02; test: IEDB peptide-MHC binding, purified MHC/competitive/radioactivity; filed as Kd, often an IC50 or EC50 that approximates it; ≥ and ≤ were set here for values at or beyond the usual limits of such assays; conditions: source organism: Dengue virus 2 Jamaica/1409/1983
[31] = target: HLA-B*35:01; test: IEDB peptide-MHC binding, purified MHC/direct/fluorescence; filed as Kd, often an IC50 or EC50 that approximates it; ≥ and ≤ were set here for values at or beyond the usual limits of such assays; conditions: source organism: Hepatovirus A
[32] = target: HLA-C*06:02; test: as above; conditions: source organism: Hepatovirus A
[33] = target: HLA-C*12:03; test: as above; conditions: source organism: Hepatovirus A
[34] = target: HLA-A*02:01; test: IEDB peptide-MHC binding, purified MHC/competitive/fluorescence; filed as Kd, often an IC50 or EC50 that approximates it; ≥ and ≤ were set here for values at or beyond the usual limits of such assays; conditions: source organism: Hepatovirus A
[35] = target: HLA-A*02:03; test: as above; conditions: source organism: Hepatovirus A
[36] = target: HLA-A*26:02; test: as above; conditions: source organism: Hepatovirus A
[37] = target: HLA-A*30:01; test: as above; conditions: source organism: Hepatovirus A
[38] = target: HLA-A*68:02; test: as above; conditions: source organism: Hepatovirus A
[39] = target: HLA-B*08:01; test: as above; conditions: source organism: Hepatovirus A
[40] = target: HLA-B*15:09; test: as above; conditions: source organism: Hepatovirus A
[41] = target: HLA-B*15:17; test: as above; conditions: source organism: Hepatovirus A
[42] = target: HLA-B*39:01; test: as above; conditions: source organism: Hepatovirus A
[43] = source organism: Escherichia coli O157:H7
[44] = source organism: Escherichia coli O157:H7 str. EC869

- Kd [1, 43]: ≥ 20000 nM
- Kd [2]: ≥ 20000 nM
- Kd [3]: ≥ 20000 nM
- Kd [4]: ≥ 20000 nM
- Kd [5]: ≥ 20000 nM
- Kd [6]: ≥ 20000 nM
- Kd [7, 43]: ≥ 20000 nM
- Kd [8]: ≥ 20000 nM
- Kd [9]: ≥ 20000 nM
- Kd [10]: 4 nM
- Kd [11]: ≤ 1 nM
- Kd [12, 44]: ≤ 1 nM
- Kd [13]: ≥ 20000 nM
- Kd [14, 43]: ≥ 20000 nM
- Kd [15, 43]: ≥ 5000 nM
- Kd [16]: ≥ 20000 nM
- Kd [17, 43]: 1000 nM
- Kd [18]: ≥ 20000 nM
- Kd [19, 43]: ≥ 20000 nM
- Kd [20]: ≥ 20000 nM
- Kd [21]: ≥ 20000 nM
- Kd [22]: ≥ 20000 nM
- Kd [23, 43]: ≥ 20000 nM
- Kd [24, 43]: ≥ 20000 nM
- Kd [25]: ≥ 20000 nM
- Kd [26, 44]: ≥ 20000 nM
- Kd [27, 43]: ≥ 20000 nM
- Kd [28]: 0.6 nM
Sequence: ETIGLVRAL

Sequence: SQHNYRPGY
- Kd ([29]; source organism: Dengue virus): 282 nM
- Kd ([23]; source organism: Dengue virus): ≥ 20000 nM
- Kd [30]: 777 nM

Sequence: YMYAVSGAL
- Kd ([1]; source organism: Hepatovirus A): ≥ 20000 nM
- Kd ([7]; source organism: Hepatovirus A): ≥ 20000 nM
- Kd ([12]; source organism: Hepatovirus A): ≥ 20000 nM
- Kd ([14]; source organism: Hepatovirus A): ≥ 20000 nM
- Kd ([15]; source organism: Hepatovirus A): ≥ 20000 nM
- Kd ([17]; source organism: Hepatovirus A): 11.6 nM
- Kd ([29]; source organism: Hepatovirus A): 5 nM
- Kd ([19]; source organism: Hepatovirus A): ≥ 20000 nM
- Kd [31]: 449 nM
- Kd ([23]; source organism: Hepatovirus A): 1770 nM
- Kd ([24]; source organism: Hepatovirus A): 15.6 nM
- Kd ([26]; source organism: Hepatovirus A): ≥ 20000 nM
- Kd ([27]; source organism: Hepatovirus A): ≥ 20000 nM
- Kd [32]: ≥ 20000 nM
- Kd [33]: 231 nM
- Kd [34]: 3.7 nM
- Kd [35]: 1.6 nM
- Kd [36]: 4580 nM
- Kd [37]: 4140 nM
- Kd [38]: 2120 nM
- Kd [39]: 830 nM
- Kd [40]: 322 nM
- Kd [41]: 181 nM
- Kd [42]: 1.5 nM
